# Assay results taken from patent publication US20260015399A1 (Boehringer Ingelheim, published 2026).
# *1 amine or outer side, *2 acyl side, *3 side chain or, on linkers, in order; H or OH if unused. Side-chain parts run from the residue outwards. The star is where a group is joined. C18 diacid = O=C(O)CCCCCCCCCCCCCCCCC(=O)*; γGlu = O=C(O)[C@H](CCC(=O)[*:2])N[*:1]; Isovaleryl = CC(C)CC(=O)*; Ahx = NCCCCCC(=O)O
# T1: human NPY2 receptor (human, UniProt P49146 1-381)
# T1 construct: whole, on cells; also called hNPY2-R; hNPY2R
# T1 sequence (looked up): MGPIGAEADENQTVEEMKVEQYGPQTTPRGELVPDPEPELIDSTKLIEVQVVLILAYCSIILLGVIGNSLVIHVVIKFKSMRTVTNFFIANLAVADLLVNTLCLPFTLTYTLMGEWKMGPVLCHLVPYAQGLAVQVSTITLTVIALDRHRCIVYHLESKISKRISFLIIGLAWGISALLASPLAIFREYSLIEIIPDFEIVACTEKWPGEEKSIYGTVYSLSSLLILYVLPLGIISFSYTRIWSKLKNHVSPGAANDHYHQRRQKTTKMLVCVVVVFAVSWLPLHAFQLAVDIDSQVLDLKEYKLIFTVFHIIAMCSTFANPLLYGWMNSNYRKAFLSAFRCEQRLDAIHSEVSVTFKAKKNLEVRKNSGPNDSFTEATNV
# T2: human NPY1 receptor (human, UniProt P25929 1-384)
# T2 sequence (looked up): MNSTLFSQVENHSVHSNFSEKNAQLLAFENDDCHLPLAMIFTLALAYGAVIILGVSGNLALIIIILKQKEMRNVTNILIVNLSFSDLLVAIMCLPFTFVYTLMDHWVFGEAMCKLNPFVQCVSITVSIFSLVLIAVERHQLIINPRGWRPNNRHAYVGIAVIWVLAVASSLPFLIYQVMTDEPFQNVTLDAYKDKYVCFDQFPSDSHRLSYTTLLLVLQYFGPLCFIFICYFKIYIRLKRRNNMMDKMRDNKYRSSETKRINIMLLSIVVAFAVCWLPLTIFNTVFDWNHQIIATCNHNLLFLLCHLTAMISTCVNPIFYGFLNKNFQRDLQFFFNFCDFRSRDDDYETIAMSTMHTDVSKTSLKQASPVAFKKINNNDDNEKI
# T3: human NPY5 receptor (human, UniProt Q15761 1-445)
# T3 sequence (looked up): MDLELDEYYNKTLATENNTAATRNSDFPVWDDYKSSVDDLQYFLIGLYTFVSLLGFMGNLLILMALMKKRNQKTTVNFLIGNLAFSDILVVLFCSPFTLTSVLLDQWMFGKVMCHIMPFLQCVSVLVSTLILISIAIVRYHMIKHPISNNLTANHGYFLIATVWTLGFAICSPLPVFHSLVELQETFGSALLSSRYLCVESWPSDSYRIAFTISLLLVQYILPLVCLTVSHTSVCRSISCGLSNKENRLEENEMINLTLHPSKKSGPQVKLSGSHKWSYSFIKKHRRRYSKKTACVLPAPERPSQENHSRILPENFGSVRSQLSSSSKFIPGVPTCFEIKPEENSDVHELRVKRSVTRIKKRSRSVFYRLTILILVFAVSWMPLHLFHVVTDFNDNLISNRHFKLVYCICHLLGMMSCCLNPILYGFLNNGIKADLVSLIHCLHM
# B1: Compound 176 (peptide)
# peptide: Isovaleryl-APEK([Ahx-γGlu-C18 diacid])PEEDATPEEIQRYYVSLRHYYNWLTRQRY-NH2
# SMILES: CC[C@H](C)[C@H](NC(=O)[C@H](CCC(=O)O)NC(=O)[C@H](CCC(=O)O)NC(=O)[C@@H]1CCCN1C(=O)[C@@H](NC(=O)[C@H](C)NC(=O)[C@H](CC(=O)O)NC(=O)[C@H](CCC(=O)O)NC(=O)[C@H](CCC(=O)O)NC(=O)[C@@H]1CCCN1C(=O)[C@H](CCCCNC(=O)CCCCCNC(=O)CC[C@H](NC(=O)CCCCCCCCCCCCCCCCC(=O)O)C(=O)O)NC(=O)[C@H](CCC(=O)O)NC(=O)[C@@H]1CCCN1C(=O)[C@H](C)NC(=O)CC(C)C)[C@@H](C)O)C(=O)N[C@@H](CCC(N)=O)C(=O)N[C@@H](CCCNC(=N)N)C(=O)N[C@@H](Cc1ccc(O)cc1)C(=O)N[C@@H](Cc1ccc(O)cc1)C(=O)N[C@H](C(=O)N[C@@H](CO)C(=O)N[C@@H](CC(C)C)C(=O)N[C@@H](CCCNC(=N)N)C(=O)N[C@@H](Cc1c[nH]cn1)C(=O)N[C@@H](Cc1ccc(O)cc1)C(=O)N[C@@H](Cc1ccc(O)cc1)C(=O)N[C@@H](CC(N)=O)C(=O)N[C@@H](Cc1c[nH]c2ccccc12)C(=O)N[C@@H](CC(C)C)C(=O)N[C@H](C(=O)N[C@@H](CCCNC(=N)N)C(=O)N[C@@H](CCC(N)=O)C(=O)N[C@@H](CCCNC(=N)N)C(=O)N[C@@H](Cc1ccc(O)cc1)C(N)=O)[C@@H](C)O)C(C)C
# B2: Compound 7 (peptide)
# peptide: Isovaleryl-APEK([Ahx-γGlu-C18 diacid])PEADATPEEIQRYYVSLRHYYNWLTRQRY-NH2
# B3: Compound 163 (peptide)
# peptide: Isovaleryl-APEK([Ahx-γGlu-C18 diacid])PEADASPEELQRYYVALRHYYNWLTRQRY-NH2
# B4: Compound 40 (peptide)
# peptide: Isovaleryl-APEK([Ahx-γGlu-C18 diacid])PEADASPEEIQRYYIALRHYYNWLTRQRY-NH2
# B5: Compound 195 (peptide)
# peptide: Isovaleryl-APAK([Ahx-γGlu-C18 diacid])PEEDASPEEIQRYYISLRHYYNWLTRQRY-NH2
# SMILES: CC[C@H](C)[C@H](NC(=O)[C@H](Cc1ccc(O)cc1)NC(=O)[C@H](Cc1ccc(O)cc1)NC(=O)[C@H](CCCNC(=N)N)NC(=O)[C@H](CCC(N)=O)NC(=O)[C@@H](NC(=O)[C@H](CCC(=O)O)NC(=O)[C@H](CCC(=O)O)NC(=O)[C@@H]1CCCN1C(=O)[C@H](CO)NC(=O)[C@H](C)NC(=O)[C@H](CC(=O)O)NC(=O)[C@H](CCC(=O)O)NC(=O)[C@H](CCC(=O)O)NC(=O)[C@@H]1CCCN1C(=O)[C@H](CCCCNC(=O)CCCCCNC(=O)CC[C@H](NC(=O)CCCCCCCCCCCCCCCCC(=O)O)C(=O)O)NC(=O)[C@H](C)NC(=O)[C@@H]1CCCN1C(=O)[C@H](C)NC(=O)CC(C)C)[C@@H](C)CC)C(=O)N[C@@H](CO)C(=O)N[C@@H](CC(C)C)C(=O)N[C@@H](CCCNC(=N)N)C(=O)N[C@@H](Cc1c[nH]cn1)C(=O)N[C@@H](Cc1ccc(O)cc1)C(=O)N[C@@H](Cc1ccc(O)cc1)C(=O)N[C@@H](CC(N)=O)C(=O)N[C@@H](Cc1c[nH]c2ccccc12)C(=O)N[C@@H](CC(C)C)C(=O)N[C@H](C(=O)N[C@@H](CCCNC(=N)N)C(=O)N[C@@H](CCC(N)=O)C(=O)N[C@@H](CCCNC(=N)N)C(=O)N[C@@H](Cc1ccc(O)cc1)C(N)=O)[C@@H](C)O
# B6: Compound 63 (peptide)
# peptide: Isovaleryl-APAK([Ahx-γGlu-C18 diacid])PEEDASPEEIQRYYVSLRHYYNWLTRQRY-NH2
# Target: T1, human NPY2 receptor
# Experiment: RLB, apparent Ki of filtrate after incubation at pH 6.1-6.2 (assumed 10 mg/ml)
# Procedure: (§1) The filtration RLB assay was carried out in 96-well plates in a final volume of 100 μl per well. Freeze-dried test peptides were dissolved in 100% dimethyl sulfoxide (DMSO) to stock solutions of 1 mM and serial dilutions were performed in assay buffer (50 mM HEPES, 5 mM MgCl₂, 1 mM CaCl₂), pH 7.4) containing 0.2% ovalbumin. […] Next, 80 μL membranes (HTS066M, ChemiSCREEN™ Human Neuropeptide Y2 Receptor Membrane Preparation, CHEMICON) were added to each well to give a final protein concentration of 0.5 μg/well. The plates were sealed and incubated at room temperature for 2 hours in a plate shaker set at 400 rpm. The incubation was stopped by vacuum filtration onto 0.5% polyethylene amine (PEI) presoaked GF/C filters using a 96-well FilterMate™ harvester (Perkin Elmer) followed by four washes with 300 μl/well ice-cold wash buffer (50 mM HEPES, 500 mM NaCl, pH7.4). Filter plates were then dried for 60 min at room temperature and the bottom of the plates was sealed with backing tape UniFilter-96. Finally, 50 μl/well scintillation counter cocktail (Microscint20, Packard) was added and the radioactivity was counted in the Packard TopCount NXT scintillation counter. IC₅₀ values (the half maximal inhibitory concentration of the agonist) were calculated by nonlinear regression analysis of sigmoidal dose-response curves. […]
row,Ki,Binder
1,3.9 nM,B1

# Target: T1, human NPY2 receptor
# Experiment: RLB, apparent Ki of filtrate after incubation at pH 8.1-8.2 (assumed 10 mg/ml)
# Procedure: The filtration RLB assay was carried out in 96-well plates in a final volume of 100 μl per well. Freeze-dried test peptides were dissolved in 100% dimethyl sulfoxide (DMSO) to stock solutions of 1 mM and serial dilutions were performed in assay buffer (50 mM HEPES, 5 mM MgCl₂, 1 mM CaCl₂), pH 7.4) containing 0.2% ovalbumin. […] Next, 80 μL membranes (HTS066M, ChemiSCREEN™ Human Neuropeptide Y2 Receptor Membrane Preparation, CHEMICON) were added to each well to give a final protein concentration of 0.5 μg/well. The plates were sealed and incubated at room temperature for 2 hours in a plate shaker set at 400 rpm. The incubation was stopped by vacuum filtration onto 0.5% polyethylene amine (PEI) presoaked GF/C filters using a 96-well FilterMate™ harvester (Perkin Elmer) followed by four washes with 300 μl/well ice-cold wash buffer (50 mM HEPES, 500 mM NaCl, pH7.4). Filter plates were then dried for 60 min at room temperature and the bottom of the plates was sealed with backing tape UniFilter-96. Finally, 50 μl/well scintillation counter cocktail (Microscint20, Packard) was added and the radioactivity was counted in the Packard TopCount NXT scintillation counter. IC₅₀ values (the half maximal inhibitory concentration of the agonist) were calculated by nonlinear regression analysis of sigmoidal dose-response curves.
# The peptide was (partially) dissolved by shaking the filter unit horizontally at approx. 400 rpm for 2 hours at room temperature. The sample was filtered to remove any insoluble particles.
row,Ki,Binder
1,3.1 nM,B2
2,4.9 nM,B3
3,3.8 nM,B4
4,5.7 nM,B1

# Target: T2, human NPY1 receptor
# Experiment: cell-based or functional assay
row,"EC50, HTRF cAMP Gi assay",Binder
1,> 5000 nM,B2
2,> 5000 nM,B5
3,> 5000 nM,B6
4,> 5000 nM,B3
5,> 5000 nM,B4
6,> 5000 nM,B1

# Target: T1, human NPY2 receptor
# Experiment: cell-based or functional assay
row,"EC50, HTRF cAMP Gi assay",Binder
1,0.143 nM,B2
2,0.197 nM,B5
3,0.109 nM,B6
4,0.13 nM,B3
5,0.122 nM,B4
6,0.168 nM,B1

# Target: human NPY4 receptor (human, UniProt P50391 1-375)
# Sequence (P50391 whole entry): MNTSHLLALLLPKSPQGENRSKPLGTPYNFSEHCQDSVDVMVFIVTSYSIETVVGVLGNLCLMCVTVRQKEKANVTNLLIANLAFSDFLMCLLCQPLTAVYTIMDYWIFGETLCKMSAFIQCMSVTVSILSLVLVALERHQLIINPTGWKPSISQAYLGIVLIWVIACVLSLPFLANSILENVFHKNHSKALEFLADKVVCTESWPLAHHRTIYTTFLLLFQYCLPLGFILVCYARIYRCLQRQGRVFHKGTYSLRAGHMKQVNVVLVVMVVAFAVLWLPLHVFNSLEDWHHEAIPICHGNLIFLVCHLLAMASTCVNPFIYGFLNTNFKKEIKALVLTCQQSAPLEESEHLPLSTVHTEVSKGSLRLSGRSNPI
# Experiment: cell-based or functional assay
row,"EC50, HTRF cAMP Gi assay",Binder
1,> 5000 nM,B2
2,> 5000 nM,B5
3,> 5000 nM,B6
4,> 5000 nM,B3
5,> 5000 nM,B4
6,> 5000 nM,B1

# Target: T3, human NPY5 receptor
# Experiment: cell-based or functional assay
row,"EC50, HTRF cAMP Gi assay",Binder
1,> 5000 nM,B2
2,> 5000 nM,B5
3,> 5000 nM,B6
4,> 5000 nM,B3
5,> 5000 nM,B4
6,> 5000 nM,B1

# Target: T1, human NPY2 receptor
# Experiment: RLB, apparent Ki of filtrate after incubation at pH 7.1-7.2 (assumed 10 mg/ml)
# Procedure: as §1
row,Ki,Binder
1,7.3 nM,B4
2,4 nM,B1

# Target: T1, human NPY2 receptor
# Experiment: RLB (125I-PYY(1-36) displacement, hNPY2R membranes), peptide from DMSO stock
# Procedure: as §1
row,Ki,Binder
1,6.6 nM,B6
2,8.7 nM,B1

# Target: T1, human NPY2 receptor
# Experiment: ratio of apparent Ki, pH 6 filtrate vs pH 7 filtrate
# Procedure: as §1
row,RLB ratio (RLB6/RLB7),Binder
1,1,B1

# Target: T1, human NPY2 receptor
# Experiment: ratio of apparent Ki, pH 8 filtrate vs pH 7 filtrate
# Procedure: as §1
row,RLB ratio (RLB8/RLB7),Binder
1,1.4,B1

# Target: T1, human NPY2 receptor
# Experiment: RLB: displacement of 125I-PYY(1-36) from hNPY2R membranes
row,Ki,Binder
1,1.04 nM,B2
2,0.78 nM,B5
3,0.93 nM,B6
4,0.67 nM,B3
5,0.67 nM,B4
6,1.48 nM,B1
